Measurements taken from patent US20260242478A1 (published 2026).

What was measured:
[1] = biological target: T1, Anti-CD28 Fab (SEQ ID NOs: 696, 697); test: phage ELISA; biotinylated anti-CD28 Fab on neutravidin plate, clonal phage supernatant, anti-M13 HRP detection;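 further: crude supernatants of single phage clones picked after panning were screened for binding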
T1 construct: In the phage ELISA the Fab was biotinylated and captured on neutravidin coated plates
T1 sequence (VH, as listed by the source, chain 1 of 2): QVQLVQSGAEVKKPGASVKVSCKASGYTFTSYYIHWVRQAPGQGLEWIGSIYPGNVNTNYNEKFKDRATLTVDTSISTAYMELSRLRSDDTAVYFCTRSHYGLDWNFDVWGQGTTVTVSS
T1 sequence (VL, as listed by the source, chain 2 of 2): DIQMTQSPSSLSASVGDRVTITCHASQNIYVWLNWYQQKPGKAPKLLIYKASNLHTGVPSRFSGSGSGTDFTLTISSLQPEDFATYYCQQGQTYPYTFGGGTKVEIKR

[2] = biological target: T1, Anti-CD28 Fab (SEQ ID NOs: 696, 697); test: phage ELISA on anti-CD28 Fab pre-incubated with CD28 antigen as competitor, anti-M13 HRP detection
[3] = biological target: T2, Anti-CD28 Fab (SEQ ID NOs: 696, 697); test: phage ELISA; Fab-coated wells pre-incubated with CD28 antigen as competitor, anti-M13 HRP detection;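 further: crude clonal phage supernatants screened by ELISA, comparing wells pre-treated with CD28 antigen in blocker against wells given blocker only, bound phage read via HRP-linked anti-M13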
T2 construct: In the phage ELISA the Fab was biotinylated and captured on neutravidin coated plates
T2 sequence (VH, as listed by the source, chain 1 of 2): as the sequence (VH, as listed by the source, chain 1 of 2) above
T2 sequence (VL, as listed by the source, chain 2 of 2): as the sequence (VL, as listed by the source, chain 2 of 2) above
Method: (§1) After panning, phage infected bacteria were plated out and colonies picked into 96 well blocks. Clonal phage was then amplified and separated from bacterial cells via centrifugation.
(§2) Clonal phage were harvested as crude supematants and screened via standard ELISAs. […] Prior to the addition of clonal phage, wells were incubated with blocking buffer and CD28 antigen or blocking buffer alone. Without washing or aspirating, clonal phage supematants were then added to the wells and incubated for a short time. Wells were then washed followed by detection of bound phage using a horse radish conjugated anti-M13 antibody. Clonal phage of interest were then sent for sequence analysis.

[4] = biological target: T2, Anti-CD28 Fab (SEQ ID NOs: 696, 697); test: phage ELISA; biotinylated anti-CD28 Fab on neutravidin plate, clonal phage supernatant, anti-M13 HRP detection; remark: listed apart in the source;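 further: crude supernatants of single phage clones picked after panning were screened for binding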
[5] = biological target: T3, Anti-CD28 Fab (SEQ ID NOs: 696, 697); test: phage binding ELISA on anti-CD28 Fab plate; competitor: CD28 antigen pre-incubated in the wells
T3 construct: The Fab was biotinylated and captured on neutravidin coated plates in the phage ELISA
T3 sequence (VH, as listed by the source, chain 1 of 2): as the sequence (VH, as listed by the source, chain 1 of 2) above
T3 sequence (VL, as listed by the source, chain 2 of 2): as the sequence (VL, as listed by the source, chain 2 of 2) above
Method: as §1, §2

[6] = biological target: T3, Anti-CD28 Fab (SEQ ID NOs: 696, 697); test: phage binding ELISA; biotinylated anti-CD28 Fab on neutravidin plate, bound phage detected with anti-M13 HRP;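 further: crude supernatants of clonal phage screened, wells pretreated with blocking buffer with or without CD28 antigen before brief phage incubation, washed, then bound phage detected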
Method: as §1, §2

[7] = biological target: T4, Anti-CD28 Fab (SEQ ID NOs: 696, 697); test: phage ELISA on captured anti-CD28 Fab; competitor CD28 antigen pre-incubated in the wells;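 further: clonal phage supernatants added to wells preloaded with CD28 antigen in blocking buffer, control wells buffer only, bound phage read via HRP-linked anti-M13 antibody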
T4 construct: Biotinylated Fab captured on neutravidin coated plates in the phage ELISA
T4 sequence (VH, as listed by the source, chain 1 of 2): as the sequence (VH, as listed by the source, chain 1 of 2) above
T4 sequence (VL, as listed by the source, chain 2 of 2): as the sequence (VL, as listed by the source, chain 2 of 2) above

[8] = biological target: T4, Anti-CD28 Fab (SEQ ID NOs: 696, 697); test: phage ELISA; biotinylated anti-CD28 Fab on neutravidin plate, bound phage detected with anti-M13 HRP antibody
Method: as §1, §2

## YCDGHLPEYMGKCL (Tested as clonal phage supernatant) [Phage-766]
[1]
  Phage binding ELISA, Anti-CD28 Fab signal: 1.89
[2]
  Phage binding ELISA, Anti-CD28 Fab signal in the presence of CD28: 0.11

B1: Phage-748 (peptide)
peptide: YCDGHLNEYMEKCL
notes: tested as crude clonal phage supernatant
[3]
  Anti-CD28 Fab signal in the presence of CD28 (phage binding ELISA): 0.06
[4]
  Anti-CD28 Fab signal (phage binding ELISA): 1.91

## YCAGHLPQYIAKCL (Tested as clonal phage supernatant) [Phage-763]
[1]
  Phage binding ELISA, Anti-CD28 Fab signal: 1.9
[2]
  Phage binding ELISA, Anti-CD28 Fab signal in the presence of CD28: 0.09

## YCDGHSPEYMPKCL (Tested as clonal phage supernatant) [Phage-769]
[1]
  Phage binding ELISA, Anti-CD28 Fab signal: 1.89
[2]
  Phage binding ELISA, Anti-CD28 Fab signal in the presence of CD28: 0.08

## YCEGHSEEYMSKCL (Tested as clonal phage supernatant) [Phage-754]
[5]
  Anti-CD28 Fab signal in the presence of CD28: 0.07
[6]
  Anti-CD28 Fab (SEQ ID NOs: 696, 697) signal: 1.91

B2: Phage-782 (peptide)
peptide: YCEGHSWEYIGKCL
notes: not shown: fused to the pIII filament protein of the bacteriophage
[7]
  Anti-CD28 Fab signal in the presence of CD28 (phage binding ELISA): 0.07
[8]
  Anti-CD28 Fab signal (phage binding ELISA): 1.87

## YCDGHLKEYMAKCL (Tested as clonal phage supernatant) [Phage-764]
[1]
  Phage binding ELISA, Anti-CD28 Fab signal: 1.9
[2]
  Phage binding ELISA, Anti-CD28 Fab signal in the presence of CD28: 0.07

B3: Phage-780 (peptide)
peptide: YCDGHLPEYMRKCL
notes: as for B2
[7]
  Anti-CD28 Fab signal in the presence of CD28 (phage binding ELISA): 0.08
[8]
  Anti-CD28 Fab signal (phage binding ELISA): 1.88

## YCDGHLAEYMPKCL (Tested as clonal phage supernatant) [Phage-770]
[1]
  Phage binding ELISA, Anti-CD28 Fab signal: 1.89
[2]
  Phage binding ELISA, Anti-CD28 Fab signal in the presence of CD28: 0.07

## YCDGHIDEYLQKCL (Tested as clonal phage supernatant) [Phage-772]
[1]
  Phage binding ELISA, Anti-CD28 Fab signal: 1.88
[2]
  Phage binding ELISA, Anti-CD28 Fab signal in the presence of CD28: 0.06

B4: Phage-746 (peptide)
peptide: YCAGHMPEYIDKCL
notes: as for B1
[3]
  Anti-CD28 Fab signal in the presence of CD28 (phage binding ELISA): 0.06
[4]
  Anti-CD28 Fab signal (phage binding ELISA): 1.92

## YCAGHAPQYMEKCL (Tested as clonal phage supernatant) [Phage-762]
[1]
  Phage binding ELISA, Anti-CD28 Fab signal: 1.9
[2]
  Phage binding ELISA, Anti-CD28 Fab signal in the presence of CD28: 0.08

B5: Phage-776 (peptide)
peptide: YCDGHSWEYIQKCL
notes: Position 10 is printed as '--' and was read as unchanged (I); not shown: fused to the pIII filament protein of the bacteriophage
[7]
  Anti-CD28 Fab signal in the presence of CD28 (phage binding ELISA): 0.07
[8]
  Anti-CD28 Fab signal (phage binding ELISA): 1.88

B6: Phage-784 (peptide)
peptide: YCDGHTGVYFYKCL
notes: as for B2
[7]
  Anti-CD28 Fab signal in the presence of CD28 (phage binding ELISA): 0.08
[8]
  Anti-CD28 Fab signal (phage binding ELISA): 1.87

## YCDGHSKEYMHKCL (Tested as clonal phage supernatant) [Phage-757]
[5]
  Anti-CD28 Fab signal in the presence of CD28: 0.07
[6]
  Anti-CD28 Fab (SEQ ID NOs: 696, 697) signal: 1.9

B7: Phage-747 (peptide)
peptide: YCAGHSPEFMEKCL
notes: as for B1
[3]
  Anti-CD28 Fab signal in the presence of CD28 (phage binding ELISA): 0.06
[4]
  Anti-CD28 Fab signal (phage binding ELISA): 1.91

B8: Phage-775 (peptide)
peptide: YCEGHMSEYMAKCL
notes: as for B2
[7]
  Anti-CD28 Fab signal in the presence of CD28 (phage binding ELISA): 0.11
[8]
  Anti-CD28 Fab signal (phage binding ELISA): 1.88

B9: Phage-786 (peptide)
peptide: YCEGHRSEYMAKCL
notes: as for B2
[7]
  Anti-CD28 Fab signal in the presence of CD28 (phage binding ELISA): 0.06
[8]
  Anti-CD28 Fab signal (phage binding ELISA): 1.86

## YCDGHRPEYMEKCL (Tested as clonal phage supernatant) [Phage-765]
[1]
  Phage binding ELISA, Anti-CD28 Fab signal: 1.9
[2]
  Phage binding ELISA, Anti-CD28 Fab signal in the presence of CD28: 0.06

## YCDGHLDIYLAKCL (Tested as clonal phage supernatant) [Phage-753]
[5]
  Anti-CD28 Fab signal in the presence of CD28: 0.08
[6]
  Anti-CD28 Fab (SEQ ID NOs: 696, 697) signal: 1.91

## YCDGHAPEYMKKCL (Tested as clonal phage supernatant) [Phage-756]
[5]
  Anti-CD28 Fab signal in the presence of CD28: 0.06
[6]
  Anti-CD28 Fab (SEQ ID NOs: 696, 697) signal: 1.9

## YCEGHLAQYMWKCL (Tested as clonal phage supernatant) [Phage-750]
[5]
  Anti-CD28 Fab signal in the presence of CD28: 0.12
[6]
  Anti-CD28 Fab (SEQ ID NOs: 696, 697) signal: 1.91

## YCDGHLKEYQEKCL (Tested as clonal phage supernatant) [Phage-749]
[5]
  Anti-CD28 Fab signal in the presence of CD28: 0.09
[6]
  Anti-CD28 Fab (SEQ ID NOs: 696, 697) signal: 1.91

## YCAGHLEEYMDKCL (Tested as clonal phage supernatant) [Phage-761]
[5]
  Anti-CD28 Fab signal in the presence of CD28: 0.06
[6]
  Anti-CD28 Fab (SEQ ID NOs: 696, 697) signal: 1.9

## YCDGHSQEYMWKCL (Tested as clonal phage supernatant) [Phage-755]
[5]
  Anti-CD28 Fab signal in the presence of CD28: 0.09
[6]
  Anti-CD28 Fab (SEQ ID NOs: 696, 697) signal: 1.9

B10: Phage-781 (peptide)
peptide: YCEGHSPLYMSKCL
notes: as for B2
[7]
  Anti-CD28 Fab signal in the presence of CD28 (phage binding ELISA): 0.09
[8]
  Anti-CD28 Fab signal (phage binding ELISA): 1.87

## YCEGHVAEYMLKCL (Tested as clonal phage supernatant) [Phage-773]
[1]
  Phage binding ELISA, Anti-CD28 Fab signal: 1.88
[2]
  Phage binding ELISA, Anti-CD28 Fab signal in the presence of CD28: 0.05

## YCEGHLQEYMEKCL (Tested as clonal phage supernatant) [Phage-767]
[1]
  Phage binding ELISA, Anti-CD28 Fab signal: 1.89
[2]
  Phage binding ELISA, Anti-CD28 Fab signal in the presence of CD28: 0.1

B11: Phage-779 (peptide)
peptide: YCEGHLPEYMMKCL
notes: as for B2
[7]
  Anti-CD28 Fab signal in the presence of CD28 (phage binding ELISA): 0.27
[8]
  Anti-CD28 Fab signal (phage binding ELISA): 1.88

B12: Phage-783 (peptide)
peptide: YCDGHSALYMSKCL
notes: as for B2
[7]
  Anti-CD28 Fab signal in the presence of CD28 (phage binding ELISA): 0.08
[8]
  Anti-CD28 Fab signal (phage binding ELISA): 1.87

## YCEGHSSEYMEKCL (Tested as clonal phage supernatant) [Phage-752]
[5]
  Anti-CD28 Fab signal in the presence of CD28: 0.06
[6]
  Anti-CD28 Fab (SEQ ID NOs: 696, 697) signal: 1.91

## YCEGHLAVYMQKCL (Tested as clonal phage supernatant) [Phage-751]
[5]
  Anti-CD28 Fab signal in the presence of CD28: 0.1
[6]
  Anti-CD28 Fab (SEQ ID NOs: 696, 697) signal: 1.91

## YCDGHAEEYMSKCL (Tested as clonal phage supernatant) [Phage-759]
[5]
  Anti-CD28 Fab signal in the presence of CD28: 0.09
[6]
  Anti-CD28 Fab (SEQ ID NOs: 696, 697) signal: 1.9

## YCEGHSPEYMWKCL (Tested as clonal phage supernatant) [Phage-771]
[1]
  Phage binding ELISA, Anti-CD28 Fab signal: 1.89
[2]
  Phage binding ELISA, Anti-CD28 Fab signal in the presence of CD28: 0.09

## YCDGHVEEYLYKCL (Tested as clonal phage supernatant) [Phage-760]
[5]
  Anti-CD28 Fab signal in the presence of CD28: 0.06
[6]
  Anti-CD28 Fab (SEQ ID NOs: 696, 697) signal: 1.9

B13: Phage-777 (peptide)
peptide: YCEGHSLEYMAKCL
notes: as for B2
[7]
  Anti-CD28 Fab signal in the presence of CD28 (phage binding ELISA): 0.08
[8]
  Anti-CD28 Fab signal (phage binding ELISA): 1.88

## YCEGHLSEYMSKCL (Tested as clonal phage supernatant) [Phage-774]
[1]
  Phage binding ELISA, Anti-CD28 Fab signal: 1.88
[2]
  Phage binding ELISA, Anti-CD28 Fab signal in the presence of CD28: 0.09

B14: Phage-778 (peptide)
peptide: YCEGHSYEYMWKCL
notes: as for B2
[7]
  Anti-CD28 Fab signal in the presence of CD28 (phage binding ELISA): 0.08
[8]
  Anti-CD28 Fab signal (phage binding ELISA): 1.88

## YCEGHIPEYMAKCL (Tested as clonal phage supernatant) [Phage-768]
[1]
  Phage binding ELISA, Anti-CD28 Fab signal: 1.89
[2]
  Phage binding ELISA, Anti-CD28 Fab signal in the presence of CD28: 0.06

## YCDGHEPQYLEKCL (Tested as clonal phage supernatant) [Phage-758]
[5]
  Anti-CD28 Fab signal in the presence of CD28: 0.08
[6]
  Anti-CD28 Fab (SEQ ID NOs: 696, 697) signal: 1.9
